From US10279036B2, “Antibody-albumin nanoparticle complexes comprising albumin, bevacizumab, and paclitaxel, and methods of making and using the same” (Mayo Foundation for Medical Education and Research, priority 2012, dated 2019)
pKd: −log10 of the molar value. Read-outs that look alike come from different tables or passages of the source.

Experiments:
[1] = target: T1, ABRAXANE® nanoparticles (Homo sapiens, UniProt P02768); assay: Complex formation of labeled therapeutic antibodies with labeled ABRAXANE nanoparticles (flow cytometry); format: binding; conditions: fluorescently labeled, FIG. 14
T1 construct: purchased Celgene Corp
Excerpt: The particles were spun down, washed, and visualized by flow cytometry.

[2] = Bevacizumab binding of free paclitaxel (Western blot); conditions: 4 mg bevacizumab with 0.1-2 mg paclitaxel, 30 minutes room temperature
Description: The following was performed to determine if bevacizumab binds free paclitaxel. 4 mg of bevacizumab was incubated with paclitaxel (0.1, 0.5, 1, or 2 mg) for 30 minutes at room temperature.

[3] = target: T2, human serum albumin (Homo sapiens, UniProt P02768); assay: Association and dissociation of AVASTIN with human serum albumin (streptavidin sensor); format: binding; conditions: read-out: dissociation constant
T2 construct: purchased
Description: (§1) The association and dissociation of AVASTIN® with human serum albumin and ABRAXANE® were determined. In this experiment, biotinylated AVASTIN® was bound to a streptavidin sensor. After AVASTIN® loading to the sensor, the sensor was exposed to either 1 mg/mL of human serum albumin or 1 mg/mL of ABRAXANE®. […] The dissociation constants were calculated to be 6.2×10^−6 and 5.873×10^−7 for human serum albumin and ABRAXANE®, respectively.
(§2) The association and dissociation of albumin with AVASTIN® and AVASTIN® with ABRAXANE® were determined. In this experiment, biotinylated AVASTIN® or biotinylated Albumin® was bound to a streptavidin sensor. After albumin or AVASTIN® loading to the sensor, the sensor was exposed to 1 mg/mL of AVASTIN® or 1 mg/mL of ABRAXANE®, respectively. […] The dissociation constant calculated for albumin and AVASTIN® was 6.588×10^−10. The dissociation constant calculated for AVASTIN® and ABRAXANE® in this experiment was 1.698×10^−5.

[4] = target: T3, ABRAXANE® (Homo sapiens, UniProt P02768); assay: Association and dissociation of AVASTIN (or IgG) with ABRAXANE (streptavidin sensor); format: binding; conditions: biotinylated AVASTIN on streptavidin sensor, 1 mg/mL ABRAXANE, read-out: dissociation constant
T3 construct: purchased Celgene Corp
Description: as §1, §2
The following was performed to assess protein binding due to deglycosylation of bevacizumab compared to naturally occurring IgG. In order to determine if bevacizumab binding to ABRAXANE® is due to the deglycosylation of the Fe chain of the antibody, the binding kinetics of bevacizumab were compare to naturally produced IgG isolated from human plasma.

[5] = test system: A375 melanoma tumor cells; assay: A375 proliferation assay (DNA synthesis, EdU); format: cell-based, human; conditions: 100 μg/mL, overnight
Description: After the overnight incubation, cell proliferation was determined by measuring the level of DNA synthesis.
After an overnight incubation, proliferation of the cells was measured by determining the level of DNA synthesis.
Proliferation of A375 melanoma tumor cells in vitro following exposure to various treatments was assessed. […] With reference to FIG. 33, the complexes were made with an ABRAXANE®: AVASTIN® at a 2.5 to 1 ratio. […] The nanoparticles were resuspended in 0.9% saline and added to the wells containing 50,000 A375 cells. The cells were incubated overnight at 37° C. The cells were stained with a thymidine analog, EdU, which incorporates into the DNA as cells proliferate. Cells that are actively proliferating stain positive. The proliferation index was calculated as the % positive cells in treated cells/% positive cells in untreated cells.
After the overnight incubation, the A375 cells were harvested, permeabolized and intracellularly stained with a FITC conjugated anti-EdU antibody. Cell proliferation was determined by DNA synthesis as a percentage of cells, which were FITC positive on a Guava 8HT flow cytometer (Millipore Billerica, Mass.). […] The proliferation index was calculated by dividing the percentage of proliferating cells in treated wells (FITC positive) by the percentage of cells proliferating in the untreated well.

[6] = test system: A375 human melanoma tumor cells; assay: A375 xenograft, ABRAXANE/AVASTIN/cisplatin complexes; conditions: treated once intravenously
Description: Athymic nude mice were injected with 1×10^6 A375 human melanoma tumor cells. […] Following incubation, the complexes were diluted for mouse injection. Mice were treated once, and tumor growth was monitored for at least 80 days for all mice.

| pKd ([4]; first experiment, listed as bevacizumab) | pKd ([4]; first experiment) | pKd ([4]; second experiment) | Compound | complex formation with ABRAXANE nanoparticles [1] | binding of free paclitaxel [2] | pKd ([3]; biotinylated AVASTIN on streptavidin sensor, 1 mg/mL human serum albumin) | pKd ([3]; biotinylated albumin on streptavidin sensor, 1 mg/mL AVASTIN) | cells killed [5] | median survival [6] |
| --- | --- | --- | --- | --- | --- | --- | --- | --- | --- |
| 6.24 | 6.23 | 4.77 | AVASTIN®: humanized monoclonal antibody that binds to vascular endothelial growth factor A | spontaneously formed complexes with ABRAXANE® nanoparticles | did not bind free paclitaxel | 5.21 | 9.18 |  |  |
|  |  |  | N.N.[Cl][Pt][Cl] [cisplatin, cisdiamminedichloroplatinum (II)] |  |  |  |  | 100% | 9 days |
|  |  |  | rituxan: therapeutic monoclonal antibody | spontaneously formed complexes with ABRAXANE® nanoparticles |  |  |  |  |  |
